Experimental findings from article PMC4370744, “Expression and purification of functional human glycogen synthase-1:glycogenin-1 complex in insect cells” (Protein Expression and Purification, 2015) are described below.

This experiment has as its target T1, human glycogenin-1 (GN1), GST removed by PreScission protease (human, UniProt P46976 1-350, glycosylated (degree of glycosylation modest)).
T1 construct: human glycogenin-1 (GN1), NM 004130; released from GST at the PreScission site; the introduction speaks of a complete full-length complex; Same construct as m2 after cleavage; source: Sf9, co-expressed with GYS1; purified with GYS1 (glutathione Sepharose, eluted by GST-tagged PreScission protease, Superdex 200)
T1 sequence (looked up): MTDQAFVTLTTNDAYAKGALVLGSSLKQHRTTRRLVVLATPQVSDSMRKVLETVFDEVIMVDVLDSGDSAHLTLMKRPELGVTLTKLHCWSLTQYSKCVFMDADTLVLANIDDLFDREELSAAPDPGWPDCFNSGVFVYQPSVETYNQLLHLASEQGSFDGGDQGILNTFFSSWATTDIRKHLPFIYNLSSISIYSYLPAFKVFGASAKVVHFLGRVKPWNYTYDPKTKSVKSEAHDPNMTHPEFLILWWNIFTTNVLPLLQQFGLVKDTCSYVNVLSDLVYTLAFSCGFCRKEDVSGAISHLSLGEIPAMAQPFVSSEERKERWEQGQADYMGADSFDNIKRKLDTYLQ
Put plainly: SEC; analytical: purified GYS1:GN1 (5 ug) on Superdex 200 3.2/300, 20 mM TES pH 7.4, 150 mM KCl, 1 mM DTT; apparent MW against protein standards. To be noted: both partners purified. For orientation: In gel filtration, larger molecules generally elute earlier.

B1: human muscle glycogen synthase (GYS1) (enzyme, UniProt P13807 1-737, looked up)
chain: MPLNRTLSMSSLPGLEDWEDEFDLENAVLFEVAWEVANKVGGIYTVLQTKAKVTGDEWGDNYFLVGPYTEQGVRTQVELLEAPTPALKRTLDSMNSKGCKVYFGRWLIEGGPLVVLLDVGASAWALERWKGELWDTCNIGVPWYDREANDAVLFGFLTTWFLGEFLAQSEEKPHVVAHFHEWLAGVGLCLCRARRLPVATIFTTHATLLGRYLCAGAVDFYNNLENFNVDKEAGERQIYHRYCMERAAAHCAHVFTTVSQITAIEAQHLLKRKPDIVTPNGLNVKKFSAMHEFQNLHAQSKARIQEFVRGHFYGHLDFNLDKTLYFFIAGRYEFSNKGADVFLEALARLNYLLRVNGSEQTVVAFFIMPARTNNFNVETLKGQAVRKQLWDTANTVKEKFGRKLYESLLVGSLPDMNKMLDKEDFTMMKRAIFATQRQSFPPVCTHNMLDDSSDPILTTIRRIGLFNSSADRVKVIFHPEFLSSTSPLLPVDYEEFVRGCHLGVFPSYYEPWGYTPAECTVMGIPSISTNLSGFGCFMEEHIADPSAYGIYILDRRFRSLDDSCSQLTSFLYSFCQQSRRQRIIQRNRTERLSDLLDWKYLGRYYMSARHMALSKAFPEHFTYEPNEADAAQGYRYPRPASVPPSPSLSRHSSPHQSEDEEDPRNGPLEEDGERYDEDEEAAKDRRNIRAPEWPRRASCTSSTSGSKRNSVDTATSSSLSTPSEPLSPTSSLGEERN
modifications: heavily phosphorylated: phospho-T54, T372, S412, S486, S641, S645, S647, S652, S653, S657, S710, S727 (LC-MS), S8/S11 (immunoblot); about 6 mol phosphate per mol total protein (GYS1 + GN1)
notes: human muscle glycogen synthase GYS1, NM 002103, UniProt P13807; no tag; the introduction speaks of a complete full-length complex; tryptic peptides up to residue 737 were found; the methods say only 'genes coding for human GYS1'; also called glycogen synthase-1; GYSb (native, phosphorylated form); source: Sf9, co-expressed with GST-tagged GN1 from a bicistronic pFastBac-Dual baculovirus; in …
Regarding B1, the “stoichiometry N” value was ~1 GYS1 per GN1 (printed as 4:4).

The stoichiometry N is a count of units in the complex or per binding partner.
